From the supplement of paper PMC10065799, “High-throughput profiling of sequence recognition by tyrosine kinases and SH2 domains using bacterial peptide display” (eLife, 2023)

How the values were obtained:
[1] = biological target: SHP2-C SH2; experiment: SH2 binding enrichment of the phosphorylated peptide, bacterial display (enrichment ratio); higher = better substrate or ligand; peptides without Tyr show the background
[2] = biological target: c-Src SH2; experiment: as above
[3] = biological target: Grb2 SH2 (UniProt P62993); experiment: as above
[4] = biological target: MERTK (UniProt Q12866); experiment: phosphorylation enrichment, bacterial display (enrichment ratio); higher = better substrate or ligand; peptides without Tyr show the background
[5] = biological target: EPHB1 (UniProt P54762); experiment: as above
[6] = biological target: Jak2 (UniProt O60674); experiment: as above
[7] = system: c-Src; experiment: as above
[8] = biological target: FGFR1 (UniProt P11362); experiment: as above
[9] = system: c-Abl (mouse); experiment: as above
[10] = biological target: Hck (UniProt P08631); experiment: as above
[11] = system: AncSZ; experiment: as above
[12] = biological target: EPHB2 (UniProt P29323); experiment: as above
[13] = biological target: FGFR3 (UniProt P22607); experiment: as above
[14] = system: Fer (mouse); experiment: as above
[15] = biological target: Fyn (UniProt P06241); experiment: as above
[16] = biological target: Fes (UniProt P07332); experiment: as above
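For SH2 binding enrichment of the phosphorylated peptide, bacterial display in this document: peptide library displayed on the E. coli surface as eCPX fusions, selected cells deep-sequenced, score is each peptide's frequency after selection divided by its frequency in the input.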
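For phosphorylation enrichment, bacterial display in this document: 11-residue human phosphosite peptides and single-mutation variants displayed on the E. coli surface, counted by deep sequencing, each peptide's frequency after selection divided by its frequency in the unselected input library; frequency after pTyr selection over input frequency; kinase dosed for 20-30% of maximal phosphorylation in three min.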

Chain of MERTK (Q12866 whole entry, looked up): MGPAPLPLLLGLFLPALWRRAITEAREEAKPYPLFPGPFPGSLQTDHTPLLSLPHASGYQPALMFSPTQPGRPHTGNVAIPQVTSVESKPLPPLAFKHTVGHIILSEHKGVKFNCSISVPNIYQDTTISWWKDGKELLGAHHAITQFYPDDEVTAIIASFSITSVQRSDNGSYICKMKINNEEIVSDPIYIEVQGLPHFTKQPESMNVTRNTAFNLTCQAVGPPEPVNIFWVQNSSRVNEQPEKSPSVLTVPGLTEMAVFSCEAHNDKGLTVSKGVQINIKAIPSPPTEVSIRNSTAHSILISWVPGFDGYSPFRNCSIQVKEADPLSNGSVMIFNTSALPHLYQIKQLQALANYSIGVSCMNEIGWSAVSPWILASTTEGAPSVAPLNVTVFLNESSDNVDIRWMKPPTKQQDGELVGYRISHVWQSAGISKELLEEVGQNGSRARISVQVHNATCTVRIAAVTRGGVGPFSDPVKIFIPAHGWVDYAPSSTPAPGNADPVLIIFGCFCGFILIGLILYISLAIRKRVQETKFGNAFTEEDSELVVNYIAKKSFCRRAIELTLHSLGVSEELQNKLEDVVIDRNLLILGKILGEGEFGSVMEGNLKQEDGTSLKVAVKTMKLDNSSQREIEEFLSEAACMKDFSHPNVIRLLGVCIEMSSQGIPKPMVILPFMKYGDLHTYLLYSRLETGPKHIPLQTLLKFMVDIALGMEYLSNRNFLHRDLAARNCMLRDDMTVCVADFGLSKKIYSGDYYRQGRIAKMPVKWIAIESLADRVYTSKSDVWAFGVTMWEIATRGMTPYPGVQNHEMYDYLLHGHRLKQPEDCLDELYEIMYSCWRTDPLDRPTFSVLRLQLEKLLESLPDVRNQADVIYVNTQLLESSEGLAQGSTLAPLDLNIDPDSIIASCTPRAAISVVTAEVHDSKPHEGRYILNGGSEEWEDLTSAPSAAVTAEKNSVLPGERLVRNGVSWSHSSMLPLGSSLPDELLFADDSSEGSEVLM
Chain of Fes (P07332 whole entry, looked up, the tested form may be a part): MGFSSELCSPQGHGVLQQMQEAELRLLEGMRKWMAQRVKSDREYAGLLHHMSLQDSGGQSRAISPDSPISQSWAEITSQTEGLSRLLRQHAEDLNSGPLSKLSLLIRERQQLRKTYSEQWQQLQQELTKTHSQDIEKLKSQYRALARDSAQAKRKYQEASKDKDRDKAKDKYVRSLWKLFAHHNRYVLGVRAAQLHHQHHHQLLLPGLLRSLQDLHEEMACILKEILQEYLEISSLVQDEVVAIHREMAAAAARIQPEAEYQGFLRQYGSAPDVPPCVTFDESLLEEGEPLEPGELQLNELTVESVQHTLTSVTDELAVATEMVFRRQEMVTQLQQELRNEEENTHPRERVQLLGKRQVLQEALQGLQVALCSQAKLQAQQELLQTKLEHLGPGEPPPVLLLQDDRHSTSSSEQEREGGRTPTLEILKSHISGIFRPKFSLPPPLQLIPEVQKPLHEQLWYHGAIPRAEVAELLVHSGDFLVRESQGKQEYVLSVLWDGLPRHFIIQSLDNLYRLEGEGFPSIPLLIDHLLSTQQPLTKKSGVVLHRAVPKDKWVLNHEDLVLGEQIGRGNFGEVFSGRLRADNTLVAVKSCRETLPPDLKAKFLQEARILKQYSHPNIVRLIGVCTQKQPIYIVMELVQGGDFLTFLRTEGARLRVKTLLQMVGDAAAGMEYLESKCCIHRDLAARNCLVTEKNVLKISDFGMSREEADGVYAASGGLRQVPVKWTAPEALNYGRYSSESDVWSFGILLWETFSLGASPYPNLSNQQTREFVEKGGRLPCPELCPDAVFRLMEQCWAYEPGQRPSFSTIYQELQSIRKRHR
Chain of FGFR3 (P22607 whole entry, looked up): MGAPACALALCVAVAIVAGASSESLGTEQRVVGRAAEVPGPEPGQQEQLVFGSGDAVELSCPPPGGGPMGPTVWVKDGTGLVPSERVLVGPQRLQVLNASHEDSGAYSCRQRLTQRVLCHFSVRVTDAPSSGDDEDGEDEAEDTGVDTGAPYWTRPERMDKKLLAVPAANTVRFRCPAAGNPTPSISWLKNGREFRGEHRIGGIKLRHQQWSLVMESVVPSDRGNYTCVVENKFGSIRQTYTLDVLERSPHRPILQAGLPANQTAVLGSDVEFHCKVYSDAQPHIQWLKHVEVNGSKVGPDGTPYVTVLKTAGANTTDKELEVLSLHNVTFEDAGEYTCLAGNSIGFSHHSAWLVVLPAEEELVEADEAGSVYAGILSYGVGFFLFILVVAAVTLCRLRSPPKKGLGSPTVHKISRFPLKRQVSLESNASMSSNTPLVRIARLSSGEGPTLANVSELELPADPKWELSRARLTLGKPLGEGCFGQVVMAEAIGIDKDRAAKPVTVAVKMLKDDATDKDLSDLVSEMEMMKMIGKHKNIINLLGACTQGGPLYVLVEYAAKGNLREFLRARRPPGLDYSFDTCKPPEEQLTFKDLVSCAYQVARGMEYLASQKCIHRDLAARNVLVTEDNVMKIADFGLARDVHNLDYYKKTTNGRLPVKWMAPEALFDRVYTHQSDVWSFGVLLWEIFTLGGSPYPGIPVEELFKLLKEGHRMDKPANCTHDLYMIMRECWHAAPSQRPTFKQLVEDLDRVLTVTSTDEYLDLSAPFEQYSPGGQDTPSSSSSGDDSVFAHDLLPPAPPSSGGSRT
Chain of EPHB2 (P29323 whole entry, looked up): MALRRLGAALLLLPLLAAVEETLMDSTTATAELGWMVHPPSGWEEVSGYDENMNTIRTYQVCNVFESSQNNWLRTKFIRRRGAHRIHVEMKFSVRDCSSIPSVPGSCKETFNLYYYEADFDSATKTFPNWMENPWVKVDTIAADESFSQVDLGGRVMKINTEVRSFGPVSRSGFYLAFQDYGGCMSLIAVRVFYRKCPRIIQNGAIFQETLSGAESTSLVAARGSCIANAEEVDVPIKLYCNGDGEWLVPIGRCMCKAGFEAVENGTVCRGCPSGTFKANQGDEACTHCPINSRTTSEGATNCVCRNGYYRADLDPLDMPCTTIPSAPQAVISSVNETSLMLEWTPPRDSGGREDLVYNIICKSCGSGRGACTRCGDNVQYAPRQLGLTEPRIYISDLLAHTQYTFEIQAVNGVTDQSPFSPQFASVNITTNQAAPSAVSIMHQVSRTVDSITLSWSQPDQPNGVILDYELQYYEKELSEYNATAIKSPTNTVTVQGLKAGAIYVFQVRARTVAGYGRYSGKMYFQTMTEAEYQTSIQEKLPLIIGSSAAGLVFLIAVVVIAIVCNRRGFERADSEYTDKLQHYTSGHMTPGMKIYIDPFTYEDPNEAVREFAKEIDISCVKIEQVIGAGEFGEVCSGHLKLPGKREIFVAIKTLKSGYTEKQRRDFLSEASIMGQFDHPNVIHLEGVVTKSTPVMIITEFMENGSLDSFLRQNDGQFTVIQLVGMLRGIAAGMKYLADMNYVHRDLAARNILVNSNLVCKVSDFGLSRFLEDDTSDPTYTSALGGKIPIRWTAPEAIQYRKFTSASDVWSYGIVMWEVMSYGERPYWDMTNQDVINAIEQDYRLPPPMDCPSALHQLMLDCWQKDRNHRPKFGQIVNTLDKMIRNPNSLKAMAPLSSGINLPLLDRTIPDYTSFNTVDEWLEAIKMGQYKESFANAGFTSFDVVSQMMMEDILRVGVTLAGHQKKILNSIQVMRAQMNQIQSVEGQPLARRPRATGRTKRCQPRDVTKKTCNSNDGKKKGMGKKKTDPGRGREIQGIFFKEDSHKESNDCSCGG
Chain of FGFR1 (P11362 whole entry, looked up): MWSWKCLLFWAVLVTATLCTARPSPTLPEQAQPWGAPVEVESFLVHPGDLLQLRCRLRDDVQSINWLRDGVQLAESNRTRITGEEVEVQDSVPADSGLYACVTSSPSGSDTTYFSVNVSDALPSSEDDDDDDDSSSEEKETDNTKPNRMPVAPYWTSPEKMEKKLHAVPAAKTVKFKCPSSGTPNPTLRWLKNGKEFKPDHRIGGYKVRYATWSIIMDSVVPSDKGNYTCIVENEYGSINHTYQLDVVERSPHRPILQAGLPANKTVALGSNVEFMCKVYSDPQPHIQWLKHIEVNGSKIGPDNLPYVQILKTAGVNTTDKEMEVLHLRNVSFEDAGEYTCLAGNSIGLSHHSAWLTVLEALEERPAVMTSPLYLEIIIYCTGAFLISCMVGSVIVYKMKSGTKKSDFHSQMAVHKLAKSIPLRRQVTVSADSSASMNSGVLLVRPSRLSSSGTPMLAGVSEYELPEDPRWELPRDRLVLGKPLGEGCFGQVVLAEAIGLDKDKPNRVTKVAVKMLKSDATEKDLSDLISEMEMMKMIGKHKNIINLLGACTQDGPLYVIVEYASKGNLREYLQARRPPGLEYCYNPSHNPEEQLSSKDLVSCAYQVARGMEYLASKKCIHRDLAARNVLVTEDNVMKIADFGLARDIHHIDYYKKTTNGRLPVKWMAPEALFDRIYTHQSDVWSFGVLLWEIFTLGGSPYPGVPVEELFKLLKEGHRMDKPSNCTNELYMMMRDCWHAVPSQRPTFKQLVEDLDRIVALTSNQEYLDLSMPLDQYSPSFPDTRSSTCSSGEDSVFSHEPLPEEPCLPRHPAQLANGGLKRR
Chain of Grb2 SH2 (P62993 whole entry, looked up): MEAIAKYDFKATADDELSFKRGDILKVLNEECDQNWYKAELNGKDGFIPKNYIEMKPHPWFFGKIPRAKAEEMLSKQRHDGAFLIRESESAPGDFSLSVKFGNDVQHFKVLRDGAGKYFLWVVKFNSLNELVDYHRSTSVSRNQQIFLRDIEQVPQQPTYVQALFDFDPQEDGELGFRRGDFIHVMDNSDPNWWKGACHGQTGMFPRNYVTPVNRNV

Sequence | SH2 binding enrichment [1] | SH2 binding enrichment [2] | SH2 binding enrichment [3] | phosphorylation enrichment [4] | phosphorylation enrichment [5] | phosphorylation enrichment [6] | phosphorylation enrichment [7] | phosphorylation enrichment [8] | phosphorylation enrichment [9] | phosphorylation enrichment [10] | phosphorylation enrichment [11] | phosphorylation enrichment [12] | phosphorylation enrichment [13] | phosphorylation enrichment [14] | phosphorylation enrichment [15] | phosphorylation enrichment [16]
LLRFLYFFVCS [SLC34A2_Y109_G106R] | 1.96 | 1.73 | 2.1 | 0.744 | 0.606 | 1.69 | 0.587 | 0.72 | 0.697 | 0.704 | 0.948 | 0.585 | 1.22 | 0.573 | 0.519 | 1.59
PINEPYGDDLD [JUP_Y693_M697L] | 0.568 | 0.655 | 0.727 | 0.653 | 0.799 | 1.16 | 0.696 | 0.873 | 0.972 | 0.532 | 1.35 | 0.921 | 0.988 | 0.734 | 0.781 | 1.16
ETCLAYMEKRI [TEKT1_Y118_R119M] | 0.775 | 0.445 | 0.67 | 0.406 | 0.591 | 1.17 | 0.511 | 0.48 | 0.818 | 0.56 | 1.2 | 0.617 | 0.814 | 0.691 | 0.517 | 1.13
APGDAYGDAGF [SYP_Y250_YF] | 0.545 | 0.469 | 0.714 | 0.426 | 0.514 | 0.8 | 0.464 | 0.484 | 0.565 | 0.566 | 0.938 | 0.548 | 0.521 | 0.491 | 0.494 | 0.905
ILLAGCLVMVI [SLC28A3_Y113_Y113C] | 0.534 | 0.533 | 0.92 | 0.486 | 0.607 | 1.18 | 0.475 | 0.422 | 0.995 | 0.51 | 1.24 | 0.614 | 0.829 | 0.493 | 0.471 | 1.26
SILAVYSKDNY [PANK2_Y400] | 0.612 | 0.855 | 0.681 | 0.588 | 0.478 | 0.549 | 1.11 | 0.451 | 0.653 | 0.875 | 0.925 | 0.486 | 0.524 | 0.425 | 0.756 | 0.664
SFPHEYGSQEG [RBM10_Y48_R46H_YF] | 0.623 | 0.643 | 0.93 | 0.459 | 0.485 | 0.645 | 0.395 | 0.565 | 0.583 | 0.679 | 0.768 | 0.602 | 1.46 | 0.47 | 0.515 | 0.87
